Experimental findings from patent US20260234247A1 (published 2026) are described below.

The target of assay [1] is T1, human LILRA2 on CHOK1-human LILRA2 cell line (human, UniProt Q8N149 24-483).
T1 construct: whole, on cells
The assay is described as follows: flow cytometry on CHOK1-human LILRA2 cell line (FIG. 2A).

In another assay the target is T2, human LILRA4 (human, UniProt P59901 24-446).
T2 construct: Bought protein; also called hLILRA4
The assay is described as follows: ELISA, antibody at 200 nM, OD450; + = 2-fold over ISO.

The target of another assay is T3, human LILRB5 (human, UniProt O75023 24-458).
T3 construct: Bought protein; also called hLILRB5
T3 sequence (O75023 24-458 limits assumed): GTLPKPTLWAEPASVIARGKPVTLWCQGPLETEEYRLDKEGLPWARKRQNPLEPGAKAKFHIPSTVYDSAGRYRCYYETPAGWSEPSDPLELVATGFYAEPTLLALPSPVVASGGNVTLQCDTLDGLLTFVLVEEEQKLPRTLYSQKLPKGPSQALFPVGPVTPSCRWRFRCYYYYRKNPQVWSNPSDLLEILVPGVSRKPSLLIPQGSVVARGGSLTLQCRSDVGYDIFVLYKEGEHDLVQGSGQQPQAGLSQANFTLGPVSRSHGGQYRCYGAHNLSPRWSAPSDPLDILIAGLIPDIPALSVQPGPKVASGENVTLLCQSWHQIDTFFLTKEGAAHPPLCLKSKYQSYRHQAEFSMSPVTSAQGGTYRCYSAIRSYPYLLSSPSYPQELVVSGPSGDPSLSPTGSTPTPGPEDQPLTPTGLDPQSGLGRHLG
The description is as above.

A further assay addresses T4, human LILRA2 (human, UniProt Q8N149 24-449).
T4 construct: Bought protein; also called hLILRA2
Described as above.

T4 sequence (Q8N149 24-449 limits assumed): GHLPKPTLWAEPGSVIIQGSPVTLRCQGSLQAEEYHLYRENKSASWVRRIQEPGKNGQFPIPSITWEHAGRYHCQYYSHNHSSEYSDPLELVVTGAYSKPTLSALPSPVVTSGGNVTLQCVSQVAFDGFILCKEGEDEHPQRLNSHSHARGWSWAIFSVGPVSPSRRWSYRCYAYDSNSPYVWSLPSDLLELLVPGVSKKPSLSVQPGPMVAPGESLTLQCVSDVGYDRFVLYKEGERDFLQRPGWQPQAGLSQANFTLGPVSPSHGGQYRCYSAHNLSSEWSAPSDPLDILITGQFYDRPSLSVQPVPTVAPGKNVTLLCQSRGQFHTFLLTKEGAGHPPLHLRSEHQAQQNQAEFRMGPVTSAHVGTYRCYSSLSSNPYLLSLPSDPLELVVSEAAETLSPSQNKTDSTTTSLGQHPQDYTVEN
T2 sequence (P59901 24-446 limits assumed): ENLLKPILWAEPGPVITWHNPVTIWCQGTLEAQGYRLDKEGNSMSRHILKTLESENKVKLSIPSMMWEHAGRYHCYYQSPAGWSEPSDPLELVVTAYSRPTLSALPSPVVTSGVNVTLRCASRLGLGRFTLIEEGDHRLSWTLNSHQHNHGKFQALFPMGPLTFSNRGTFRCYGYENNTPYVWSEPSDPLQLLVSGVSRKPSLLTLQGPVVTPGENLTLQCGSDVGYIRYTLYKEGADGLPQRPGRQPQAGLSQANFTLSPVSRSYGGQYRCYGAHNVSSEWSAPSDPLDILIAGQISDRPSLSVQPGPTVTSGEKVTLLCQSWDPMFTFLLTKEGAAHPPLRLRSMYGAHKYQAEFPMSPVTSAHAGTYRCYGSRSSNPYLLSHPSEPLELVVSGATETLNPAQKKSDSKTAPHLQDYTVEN
T1 sequence (Q8N149 24-483): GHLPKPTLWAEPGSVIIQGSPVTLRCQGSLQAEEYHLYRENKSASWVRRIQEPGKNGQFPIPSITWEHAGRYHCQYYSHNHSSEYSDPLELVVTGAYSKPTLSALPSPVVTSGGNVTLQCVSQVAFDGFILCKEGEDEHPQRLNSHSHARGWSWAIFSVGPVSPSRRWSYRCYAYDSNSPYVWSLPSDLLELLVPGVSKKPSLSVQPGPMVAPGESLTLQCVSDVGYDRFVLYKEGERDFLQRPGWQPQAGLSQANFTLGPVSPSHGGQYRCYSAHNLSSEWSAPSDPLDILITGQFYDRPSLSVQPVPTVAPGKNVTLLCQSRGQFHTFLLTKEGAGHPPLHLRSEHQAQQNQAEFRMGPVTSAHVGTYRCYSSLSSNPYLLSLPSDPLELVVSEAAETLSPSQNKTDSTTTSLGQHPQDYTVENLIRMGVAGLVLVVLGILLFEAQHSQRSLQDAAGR
Description for human LILRA4: (§1) To further confirm binding affinity, selected clones were assayed in ELISA or FACS in a range of testing concentrations.
Description for human LILRB5: as §1

B1: hz73D1.v1 (antibody, human IgG4 S228P, kappa, V domains shown)
VH: QVQLVQSGAEVKKPGASVKVSCKASGYTFTDYYINWVRQAPGQGLEWMGNVNPNDGGTTYNQKFKGRVTMTTDTSTSTAYMELRSLRSDDTAVYYCARREIYFYGTIYYYAMDYWGQGTLVTVSS
VL: DIQLTQSPSFLSASVGDRVTITCRASESVDYYGNSFMYWYQQKPGKAPKLLIYFASNLESGVPSRFSGSGSGTEFTLTISSLQPEDFATYYCQQNNEDPWTFGGGTKVEIKR
Take B1: in assay [1], the binding result was “no binding”.

B2: LK-RB2-16 (antibody, human IgG4 S228P, kappa, V domains shown)
VH: QIQLVQSGPELKKPGETVKISCKASGYTFTTYGMGWVKQAPEKGLKWMGWINTNSGAPTYGDDFKGRFAFSLETSASTAYLQINNLKNEDTATYFCAHYGRPWFAYWGQGTLVTVSA
VL: DIQMTQSPASLSASVGETVTITCRASENIYSYLAWYHQKQGESPQLLVYNAKTLAEGVPSRFSGSGSGTQFSLKINSLQPEDFGSYYCQHHYNIPLTFGAGTKLELKR
On to B2, for which the binding result with human LILRA4 and in the assay with human LILRB5 was “binds” throughout.

B3: LK-RB2-10 (antibody, human IgG4 S228P, kappa, V domains shown)
VH: EVMLVESGGDLVKPGGSLKLSCAASGFTFSANTVSWLRRTPERRLEWVATISGGSDNTYCPDSVKGRFTISRDNARDTLYLQMSSLTSEDTALYFCARHYYDGPNWYFDVWGPGTTVTVSS
VL: DIVMTQSQKFMSSTGGDRVTITCKASQNVDTAVAWYQQKPGQSPKLLIYSASNRYIGVPDRFKGSGSGTDFSLTITNIQSEDLAEYFCQQYSSYPLTFGAGTKLELKR
With B3, the binding result in the assay with human LILRA2 is reported as “binds”.
